What was measured:
[1] = target: T1, TRIM25 CC-PRY/SPRY triple mutant (UniProt Q14258 189-630, H505E;K508E;K602E); experiment: ITC; second fitted site; ITC and filter binding: 20 mM MES pH 6.5, 75 mM NaCl, 0.5 mM TCEP (ITC 20 C, filter binding on ice); NMR: 20 mM Na phosphate pH 6.5, 150 mM NaCl, 2 mM TCEP, 293 K; conditions: protein: recombinant; tags: His-Trx (removed); chain copies: 2; hairpin
TRIM25 CC-PRY/SPRY K602E [2] = target: T2, TRIM25 CC-PRY/SPRY K602E (UniProt Q14258 189-630, K602E); experiment: as above; conditions: protein: recombinant; tags: His-Trx (removed); chain copies: 2; hairpin
[3] = target: T3, TRIM25 CC-PRY/SPRY penta-mutant (UniProt Q14258 189-630, K283A;K285A;H505E;K508E;K602E); experiment: as above; conditions: protein: recombinant; tags: His-Trx (removed); chain copies: 2; hairpin
[4] = target: T4, TRIM25 CC-PRY/SPRY H505E/K508E (UniProt Q14258 189-630, H505E;K508E); experiment: as above; conditions: protein: recombinant; tags: His-Trx (removed); chain copies: 2; hairpin
[5] = target: T5, TRIM25 CC-PRY/SPRY K283A/K285A (UniProt Q14258 189-630, K283A;K285A); experiment: as above; conditions: protein: recombinant; tags: His-Trx (removed); chain copies: 2; hairpin
[6] = target: T6, TRIM25 CC-PRY/SPRY Y463S/Y476S (UniProt Q14258 189-630, Y463S;Y476S); experiment: as above; conditions: protein: recombinant; tags: His-Trx (removed); chain copies: 2; hairpin
TRIM25 CC-PRY/SPRY [7] = target: T7, TRIM25 CC-PRY/SPRY (UniProt Q14258 189-630); experiment: ITC; highest affinity site; ITC and filter binding: 20 mM MES pH 6.5, 75 mM NaCl, 0.5 mM TCEP (ITC 20 C, filter binding on ice); NMR: 20 mM Na phosphate pH 6.5, 150 mM NaCl, 2 mM TCEP, 293 K; conditions: protein: recombinant; tags: His-Trx (removed); chain copies: 2; hairpin
TRIM25 PRY/SPRY = TRIM25 PRY/SPRY (UniProt Q14258 439-630); experiment: ITC; ITC and filter binding: 20 mM MES pH 6.5, 75 mM NaCl, 0.5 mM TCEP (ITC 20 C, filter binding on ice); NMR: 20 mM Na phosphate pH 6.5, 150 mM NaCl, 2 mM TCEP, 293 K; conditions: protein: recombinant; tags: His-Trx (removed); chain copies: 3; hairpin
TRIM25 CC = TRIM25 CC (UniProt Q14258 189-379); experiment: as above; conditions: protein: recombinant; tags: His-Trx (removed); chain copies: 2; hairpin
TRIM25 CC-PRY/SPRY [8] = target: T7, TRIM25 CC-PRY/SPRY; experiment: filter binding; ITC and filter binding: 20 mM MES pH 6.5, 75 mM NaCl, 0.5 mM TCEP (ITC 20 C, filter binding on ice); NMR: 20 mM Na phosphate pH 6.5, 150 mM NaCl, 2 mM TCEP, 293 K; conditions: protein: recombinant; tags: His-Trx (removed); chain copies: 2; hairpin
[9] = target: T1, TRIM25 CC-PRY/SPRY triple mutant; experiment: ITC; first of two fitted sites; ITC and filter binding: 20 mM MES pH 6.5, 75 mM NaCl, 0.5 mM TCEP (ITC 20 C, filter binding on ice); NMR: 20 mM Na phosphate pH 6.5, 150 mM NaCl, 2 mM TCEP, 293 K; conditions: protein: recombinant; tags: His-Trx (removed); chain copies: 2; hairpin
TRIM25 CC-PRY/SPRY K602E [10] = target: T2, TRIM25 CC-PRY/SPRY K602E; experiment: as above; conditions: protein: recombinant; tags: His-Trx (removed); chain copies: 2; hairpin
[11] = target: T3, TRIM25 CC-PRY/SPRY penta-mutant; experiment: as above; conditions: protein: recombinant; tags: His-Trx (removed); chain copies: 2; hairpin
[12] = target: T4, TRIM25 CC-PRY/SPRY H505E/K508E; experiment: as above; conditions: protein: recombinant; tags: His-Trx (removed); chain copies: 2; hairpin
[13] = target: T5, TRIM25 CC-PRY/SPRY K283A/K285A; experiment: as above; conditions: protein: recombinant; tags: His-Trx (removed); chain copies: 2; hairpin
[14] = target: T6, TRIM25 CC-PRY/SPRY Y463S/Y476S; experiment: as above; conditions: protein: recombinant; tags: His-Trx (removed); chain copies: 2; hairpin

T3 sequence (Q14258 189-630 K283A/K285A/H505E/K508E/K602E): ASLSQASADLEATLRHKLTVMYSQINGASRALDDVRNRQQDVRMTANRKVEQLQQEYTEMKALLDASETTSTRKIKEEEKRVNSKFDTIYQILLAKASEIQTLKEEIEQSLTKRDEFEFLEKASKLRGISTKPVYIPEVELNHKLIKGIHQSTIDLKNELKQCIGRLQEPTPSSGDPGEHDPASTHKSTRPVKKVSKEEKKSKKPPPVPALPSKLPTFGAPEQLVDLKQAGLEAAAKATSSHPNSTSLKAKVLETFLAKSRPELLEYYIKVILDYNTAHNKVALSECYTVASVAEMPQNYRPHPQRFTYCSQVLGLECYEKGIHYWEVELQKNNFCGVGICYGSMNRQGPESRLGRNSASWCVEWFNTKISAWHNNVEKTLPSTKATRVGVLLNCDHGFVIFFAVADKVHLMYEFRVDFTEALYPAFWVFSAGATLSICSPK
T2 sequence (Q14258 189-630 K602E): as the sequence (Q14258 189-630 K283A/K285A/H505E/K508E/K602E) above, with A95K, A97K, E317H, E320K counted along it
T7 sequence (Q14258 189-630): as the sequence (Q14258 189-630 K283A/K285A/H505E/K508E/K602E) above, with A95K, A97K, E317H, E320K, E414K counted along it
T1 sequence (Q14258 189-630 H505E/K508E/K602E): as the sequence (Q14258 189-630 K283A/K285A/H505E/K508E/K602E) above, with A95K, A97K counted along it
T4 sequence (Q14258 189-630 H505E/K508E): as the sequence (Q14258 189-630 K283A/K285A/H505E/K508E/K602E) above, with A95K, A97K, E414K counted along it
T5 sequence (Q14258 189-630 K283A/K285A): as the sequence (Q14258 189-630 K283A/K285A/H505E/K508E/K602E) above, with E317H, E320K, E414K counted along it
T6 sequence (Q14258 189-630 Y463S/Y476S): as the sequence (Q14258 189-630 K283A/K285A/H505E/K508E/K602E) above, with A95K, A97K, Y275S, Y288S, E317H, E320K, E414K counted along it
TRIM25 PRY/SPRY, sequence (Q14258 439-630): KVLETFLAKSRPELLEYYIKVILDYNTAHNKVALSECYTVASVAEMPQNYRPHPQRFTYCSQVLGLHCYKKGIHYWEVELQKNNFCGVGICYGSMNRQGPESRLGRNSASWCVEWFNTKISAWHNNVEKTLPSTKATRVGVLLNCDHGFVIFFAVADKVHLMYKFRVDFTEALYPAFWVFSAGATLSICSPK
TRIM25 CC, sequence (Q14258 189-379): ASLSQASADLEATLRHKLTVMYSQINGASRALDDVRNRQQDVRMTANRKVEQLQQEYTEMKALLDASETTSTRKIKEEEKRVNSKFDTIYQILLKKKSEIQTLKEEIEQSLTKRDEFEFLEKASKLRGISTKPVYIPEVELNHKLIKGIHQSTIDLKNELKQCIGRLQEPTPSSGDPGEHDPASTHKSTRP

Binder: GUAUAGUUUAAAAGGAGAUAACUAUAC (structured_RNA) [pre-let-7a-1@2]
- Kd [1]: 132000 ± 24000 nM
- Kd (TRIM25 CC-PRY/SPRY K602E [2]): 2540 ± 120 nM
- Kd [3]: 124000 ± 28000 nM
- Kd [4]: 4190 ± 500 nM
- Kd [5]: 16600 ± 2100 nM
- Kd [6]: 17000 ± 11000 nM
- Kd (TRIM25 CC-PRY/SPRY [7]): 72 ± 33 nM
- Kd (TRIM25 PRY/SPRY): 5000 ± 1200 nM
- Kd (TRIM25 CC): 8100 ± 3100 nM
- Kd (TRIM25 CC-PRY/SPRY [8]): 10.2 ± 3.8 nM
- Kd [9]: 790 ± 160 nM
- Kd (TRIM25 CC-PRY/SPRY K602E [10]): 196 ± 22 nM
- Kd [11]: 1320 ± 370 nM
- Kd [12]: 484 ± 48 nM
- Kd [13]: 606 ± 124 nM
- Kd [14]: 252 ± 61 nM
